Assay results published in PMC5758903.

Experiments:
[1] = target: T1, HisTag-PCNA (human, UniProt P12004 1-261); experiment: pull-down
[2] = target: DNA polymerase delta (human, UniProt P28340;P49005;Q15054;Q9HCU8 1-1107;1-469;1-466;1-107); experiment: EMSA
[3] = target: PCNA (tag-free);DNA polymerase delta (human;human, UniProt P12004;P28340;P49005;Q15054;Q9HCU8 1-261;1-1107;1-469;1-466;1-107, |); experiment: EMSA
[4] = target: T1, HisTag-PCNA; experiment: ITC
[5] = target: T1, HisTag-PCNA; experiment: pull-down titration

T1 sequence (P12004 whole entry): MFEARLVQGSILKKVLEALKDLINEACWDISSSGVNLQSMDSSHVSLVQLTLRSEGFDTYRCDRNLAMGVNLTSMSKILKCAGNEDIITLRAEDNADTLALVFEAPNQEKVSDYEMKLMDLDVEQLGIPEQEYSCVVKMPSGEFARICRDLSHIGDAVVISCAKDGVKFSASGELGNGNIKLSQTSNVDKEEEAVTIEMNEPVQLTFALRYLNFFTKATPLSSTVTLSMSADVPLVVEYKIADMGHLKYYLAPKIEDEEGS
Sequence of DNA polymerase delta (P28340 whole entry, stated change not applied, chain 1 of 4): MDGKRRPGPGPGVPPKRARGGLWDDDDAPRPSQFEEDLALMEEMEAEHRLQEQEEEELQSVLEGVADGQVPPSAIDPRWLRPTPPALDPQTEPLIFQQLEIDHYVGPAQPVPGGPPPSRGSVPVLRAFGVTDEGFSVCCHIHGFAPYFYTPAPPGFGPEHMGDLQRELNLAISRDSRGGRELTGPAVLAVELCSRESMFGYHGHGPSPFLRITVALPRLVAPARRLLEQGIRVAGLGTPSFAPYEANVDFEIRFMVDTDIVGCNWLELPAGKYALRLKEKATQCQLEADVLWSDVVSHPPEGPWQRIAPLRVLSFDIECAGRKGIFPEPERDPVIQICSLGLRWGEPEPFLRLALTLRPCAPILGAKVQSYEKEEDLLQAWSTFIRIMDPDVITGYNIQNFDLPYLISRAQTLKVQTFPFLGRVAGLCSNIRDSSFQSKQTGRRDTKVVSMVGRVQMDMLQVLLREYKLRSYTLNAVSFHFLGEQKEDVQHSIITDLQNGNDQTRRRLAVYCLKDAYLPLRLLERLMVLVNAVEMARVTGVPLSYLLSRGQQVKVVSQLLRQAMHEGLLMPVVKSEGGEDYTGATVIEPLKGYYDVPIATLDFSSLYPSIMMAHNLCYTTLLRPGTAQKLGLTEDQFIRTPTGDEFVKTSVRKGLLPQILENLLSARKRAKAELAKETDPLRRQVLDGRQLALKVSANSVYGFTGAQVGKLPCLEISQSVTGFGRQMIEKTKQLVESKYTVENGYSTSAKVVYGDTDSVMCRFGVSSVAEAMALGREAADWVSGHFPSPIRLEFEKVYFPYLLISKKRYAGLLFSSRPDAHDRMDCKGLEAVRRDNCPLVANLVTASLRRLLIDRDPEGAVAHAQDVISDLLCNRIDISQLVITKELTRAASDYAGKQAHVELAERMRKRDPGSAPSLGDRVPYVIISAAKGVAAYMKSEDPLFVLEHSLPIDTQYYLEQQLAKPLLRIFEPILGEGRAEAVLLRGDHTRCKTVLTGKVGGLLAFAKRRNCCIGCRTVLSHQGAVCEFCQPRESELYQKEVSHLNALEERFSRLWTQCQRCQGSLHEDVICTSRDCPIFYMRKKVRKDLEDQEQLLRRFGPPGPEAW
Sequence of DNA polymerase delta (P49005 whole entry, stated change not applied, chain 2 of 4): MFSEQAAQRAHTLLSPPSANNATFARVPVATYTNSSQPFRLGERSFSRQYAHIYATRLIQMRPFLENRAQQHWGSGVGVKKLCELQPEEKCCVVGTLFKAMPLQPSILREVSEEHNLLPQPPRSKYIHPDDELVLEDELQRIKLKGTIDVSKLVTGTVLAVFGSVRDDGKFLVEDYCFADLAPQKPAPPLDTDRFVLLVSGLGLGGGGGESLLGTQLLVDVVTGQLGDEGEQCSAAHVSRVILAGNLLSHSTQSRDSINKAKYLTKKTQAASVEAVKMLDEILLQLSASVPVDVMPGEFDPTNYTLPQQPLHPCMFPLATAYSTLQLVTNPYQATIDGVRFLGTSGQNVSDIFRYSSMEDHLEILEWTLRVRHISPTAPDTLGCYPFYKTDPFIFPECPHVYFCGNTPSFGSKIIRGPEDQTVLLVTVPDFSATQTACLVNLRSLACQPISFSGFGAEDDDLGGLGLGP
Sequence of DNA polymerase delta (Q15054 whole entry, stated change not applied, chain 3 of 4): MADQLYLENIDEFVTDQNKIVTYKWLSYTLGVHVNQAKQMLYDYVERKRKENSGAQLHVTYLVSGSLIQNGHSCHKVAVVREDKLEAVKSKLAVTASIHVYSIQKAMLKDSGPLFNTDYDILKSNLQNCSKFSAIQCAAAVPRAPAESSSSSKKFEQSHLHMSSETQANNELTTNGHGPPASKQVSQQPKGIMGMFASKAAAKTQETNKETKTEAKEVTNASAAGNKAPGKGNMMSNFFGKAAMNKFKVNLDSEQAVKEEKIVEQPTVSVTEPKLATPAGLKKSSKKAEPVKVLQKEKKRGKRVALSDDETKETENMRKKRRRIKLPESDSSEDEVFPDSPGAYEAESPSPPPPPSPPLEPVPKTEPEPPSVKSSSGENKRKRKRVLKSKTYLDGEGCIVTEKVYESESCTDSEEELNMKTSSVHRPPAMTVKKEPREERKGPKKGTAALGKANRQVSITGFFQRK
Sequence of DNA polymerase delta (Q9HCU8 whole entry, stated change not applied, chain 4 of 4): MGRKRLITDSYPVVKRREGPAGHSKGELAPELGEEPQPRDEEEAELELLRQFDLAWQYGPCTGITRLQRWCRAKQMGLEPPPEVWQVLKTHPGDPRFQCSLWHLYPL

Binder	binding result [1]	binding result [2]	binding result [3]	Kd [4] [µM]	Kd [5] [µM]
A1 -20/5' (structured_DNA) DNA: CCTATGGTCCCCGCGTAGGTGGCAGCTCAAACCCGATTCGAGGAACATGCGTCGCAAAC	no binding				
Ref aptamer (ssDNA) DNA: ACTGACTGACTGACTGACTGACTGACTGACTGACTGACTGACTGACTGACTGACTGACTGACTGACTGACTGACTGACT	no binding				
CATGCTTCCCCAGGGAGATGCCTATGGTCCCCGCGTAGG (structured_DNA) [A1 -40/3']	no binding				
CATGCTTCCCCAGGGAGATGCCTATGGTCCCCGCGTAGGTGGCAGCTCA (structured_DNA) [alpha-PCNA aptamer (A1 -30/3')]		no binding	binds	2 ± 0.64	5.1 ± 0.59
